Key:
[1] = target: T1, recombinant IL-3Rα ectodomain (UniProt P26951 19-305, limits assumed); assay: ELISA, recombinant IL-3Ra
T1 construct: extracellular domain; also called IL-3Ra ectodomain; recombinant IL-3Ra
T1 sequence (looked up): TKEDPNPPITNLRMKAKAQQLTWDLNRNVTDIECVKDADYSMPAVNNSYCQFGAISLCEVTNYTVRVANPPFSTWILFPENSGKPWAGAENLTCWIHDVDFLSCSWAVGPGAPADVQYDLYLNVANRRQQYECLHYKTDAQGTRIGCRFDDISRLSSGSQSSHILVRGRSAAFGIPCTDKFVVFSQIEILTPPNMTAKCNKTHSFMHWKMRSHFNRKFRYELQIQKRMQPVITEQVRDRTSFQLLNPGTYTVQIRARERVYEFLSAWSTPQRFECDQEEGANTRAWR

[2] = target: human CXCR4 (on cells, membrane extracts or viral lipoparticles) (human, UniProt P61073 1-352); assay: cell-based or functional assay
[3] = target: T2, human CD4, cell-expressed (human, UniProt P01730 26-458); assay: FACS, MOLM-13 cells
T2 construct: whole, on cells

human CXCR4 (on cells, membrane extracts or viral lipoparticles), sequence (P61073 whole entry): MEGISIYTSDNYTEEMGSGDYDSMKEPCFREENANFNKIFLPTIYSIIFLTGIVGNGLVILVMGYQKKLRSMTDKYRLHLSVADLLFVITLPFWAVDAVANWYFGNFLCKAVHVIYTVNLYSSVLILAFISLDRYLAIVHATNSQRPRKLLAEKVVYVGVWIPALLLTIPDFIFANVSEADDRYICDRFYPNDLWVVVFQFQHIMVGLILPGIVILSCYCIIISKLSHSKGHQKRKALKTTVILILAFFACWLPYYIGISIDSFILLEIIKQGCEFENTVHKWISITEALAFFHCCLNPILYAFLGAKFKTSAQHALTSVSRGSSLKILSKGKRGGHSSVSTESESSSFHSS

| Binder | binding result [1] | Fold inc. vs anti-CXCR4 building block, Jurkat E6-1 [2] [fold] | Fold inc. vs anti-CXCR4 building block, MOLM-13 [2] [fold] | IC50, CXCL-12 induced chemotaxis, Jurkat E6-1 [2] [nM] | IC50, CXCL-12 induced chemotaxis, MOLM-13 [2] [nM] | binding result [3] |
| --- | --- | --- | --- | --- | --- | --- |
| 14D09-57A07 (4CXCR014D09(Q108L)-35GS-A0110057A07) (bispecific antibody, the entry carries a c-myc-His6 tag; also made as Flag3-His6-tagged protein; also called CXCR4#1-CD123#1; BI#16/20) EVQLVESGGGLVQAGGSLRLSCVASGISSSKRNMGWYRQAPGKQRESVATISSGGNKDYTDAVKDRFTISRDTTKNTVYLQMNSLKPEDTAVYYCKIEAGTGWATRRGYTYWGQGTLVTVSSGGGGSGGGGSGGGGSGGGGSGGGGSGGGGSGGGGSEVQLVESGGGLVQAGGSLRLSCAASGSIFSGNVMGWYRRQAPGKEREWVAAIASGGSIYYRDSVKGRFTISRDNAKNTVYLQMNSLKPEDTAVYYCNSHPPTLPYWGQGTLVTVSSAAAEQKLISEEDLNGAAHHHHHH | binds | 0.69 | 2.39 | 15 | 3.6 | – |
| 14D09-55A01 (4CXCR014D09(Q108L)-35GS-A0110055A01) (bispecific antibody, the entry carries a c-myc-His6 tag; also made as Flag3-His6-tagged protein; also called CXCR4#1-CD123#2; BI#7/19) EVQLVESGGGLVQAGGSLRLSCVASGISSSKRNMGWYRQAPGKQRESVATISSGGNKDYTDAVKDRFTISRDTTKNTVYLQMNSLKPEDTAVYYCKIEAGTGWATRRGYTYWGQGTLVTVSSGGGGSGGGGSGGGGSGGGGSGGGGSGGGGSGGGGSEVQLVESGGGSVQAGGSLRLSCTTSGRALNMYVMGWFRQAPGNEREFVAATSSSGGSTSYPDSVKGRFTISRDNAKNTVYLQMNSLKPEDTAAYRCAASPYVSTPTMNILEEYRYWGQGTLVTVSSAAAEQKLISEEDLNGAAHHHHHH | binds | 0.87 | 2.39 | 12 | 3.6 | – |
| 57A07-14D09 (A0110057A07-35GS-4CXCR014D09(Q108L)) (bispecific antibody, the entry carries a c-myc-His6 tag; for the cell assays the construct was recloned and made in Pichia as Flag3-His6-tagged protein; also called CD123#1-CXCR4#1; BI#11/23) EVQLVESGGGLVQAGGSLRLSCAASGSIFSGNVMGWYRRQAPGKEREWVAAIASGGSIYYRDSVKGRFTISRDNAKNTVYLQMNSLKPEDTAVYYCNSHPPTLPYWGQGTLVTVSSGGGGSGGGGSGGGGSGGGGSGGGGSGGGGSGGGGSEVQLVESGGGLVQAGGSLRLSCVASGISSSKRNMGWYRQAPGKQRESVATISSGGNKDYTDAVKDRFTISRDTTKNTVYLQMNSLKPEDTAVYYCKIEAGTGWATRRGYTYWGQGTLVTVSSAAAEQKLISEEDLNGAAHHHHHH | binds | 0.05 | – | 210 | – | – |
| 55A01-14D09 (A0110055A01-35GS-4CXCR014D09(Q108L)) (bispecific antibody, the entry carries a c-myc-His6 tag; also made as Flag3-His6-tagged protein; also called CD123#2-CXCR4#1; BI#8/22) EVQLVESGGGSVQAGGSLRLSCTTSGRALNMYVMGWFRQAPGNEREFVAATSSSGGSTSYPDSVKGRFTISRDNAKNTVYLQMNSLKPEDTAAYRCAASPYVSTPTMNILEEYRYWGQGTLVTVSSGGGGSGGGGSGGGGSGGGGSGGGGSGGGGSGGGGSEVQLVESGGGLVQAGGSLRLSCVASGISSSKRNMGWYRQAPGKQRESVATISSGGNKDYTDAVKDRFTISRDTTKNTVYLQMNSLKPEDTAVYYCKIEAGTGWATRRGYTYWGQGTLVTVSSAAAEQKLISEEDLNGAAHHHHHH | binds | 0.12 | 0.03 | 85 | 290 | – |
| 281F12-57A07 (4CXCR281F12(Q108L)-35GS-A0110057A07) (bispecific antibody, the entry carries a c-myc-His6 tag; also made as Flag3-His6-tagged protein; also called CXCR4#2-CD123#1; BI#4/18) EVQLVESGGGLVQAGDSLRLSCAASGRAFSRYAMGWFRQAPGKEREFVAAIGWGPSKTNYADSVKGRFTISRDNAKNTVYLQMNTLKPEDTAVYSCAAKFVNTDSTWSRSEMYTYWGQGTLVTVSSGGGGSGGGGSGGGGSGGGGSGGGGSGGGGSGGGGSEVQLVESGGGLVQAGGSLRLSCAASGSIFSGNVMGWYRRQAPGKEREWVAAIASGGSIYYRDSVKGRFTISRDNAKNTVYLQMNSLKPEDTAVYYCNSHPPTLPYWGQGTLVTVSSAAAEQKLISEEDLNGAAHHHHHH | binds | 2.55 | 12.6 | 38 | 6.83 | – |
| 281F12-55A01 (4CXCR281F12(Q108L)-35GS-A0110055A01) (bispecific antibody, the entry carries a c-myc-His6 tag; also made as Flag3-His6-tagged protein; also called CXCR4#2-CD123#2; BI#3/17) EVQLVESGGGLVQAGDSLRLSCAASGRAFSRYAMGWFRQAPGKEREFVAAIGWGPSKTNYADSVKGRFTISRDNAKNTVYLQMNTLKPEDTAVYSCAAKFVNTDSTWSRSEMYTYWGQGTLVTVSSGGGGSGGGGSGGGGSGGGGSGGGGSGGGGSGGGGSEVQLVESGGGSVQAGGSLRLSCTTSGRALNMYVMGWFRQAPGNEREFVAATSSSGGSTSYPDSVKGRFTISRDNAKNTVYLQMNSLKPEDTAAYRCAASPYVSTPTMNILEEYRYWGQGTLVTVSSAAAEQKLISEEDLNGAAHHHHHH | binds | 1.13 | 10.9 | 86 | 7.85 | – |
| CD4#8-IL12Rb1#30 (bispecific antibody, also called BI#40; T023200040) EVQLVESGGGSVQPGGSLTLSCGTSGRTFNVMGWFRQAPGKEREFVAAVRWSSTGIYYTQYADSVKSRFTISRDNAKNTVYLEMNSLKPEDTAVYYCAADTYNSNPARWDGYDFRGQGTLVTVSSGGGGSGGGGSGGGGSGGGGSGGGGSGGGGSGGGGSEVQLVESGGGLVQTGGSLRLSCAASGRTPRLVAMGWFRQTPGKEREFVGEIILSKGFTYYADSVKGRFTISRVNAKNTITMYLQMNSLKSEDTAVYYCAGRQNWSGSPARTNEYEYWGQGTLVTVSS | – | – | – | – | – | binds |
| CD4#8-IL12Rb1#31 (bispecific antibody, also called BI#41; T023200041) EVQLVESGGGSVQPGGSLTLSCGTSGRTFNVMGWFRQAPGKEREFVAAVRWSSTGIYYTQYADSVKSRFTISRDNAKNTVYLEMNSLKPEDTAVYYCAADTYNSNPARWDGYDFRGQGTLVTVSSGGGGSGGGGSGGGGSGGGGSGGGGSGGGGSGGGGSEVQLVESGGGLVQTGGSLRLSCAASGRTPSIIAMGWFRQTPGKEREFVGEIILSKGFTYYADSVKGRFTISRANAKNTITMYLQMNSLKSEDTAVYYCAARQNWSGNPTRTNEYEYWGQGTLVTVSS | – | – | – | – | – | binds |
| IL23R#20-CD4#8 (bispecific antibody, also called BI#43; T023200043) EVQLVESGGGLVQAGGSLRLSCAASGRTFSSYAMGWFRQAPGKDREFVAAISWIGESTYYADSVKGRFTISRDNAKNTVYLRMNSLKPEDTAVYYCAADLYYTAYVAAADEYDYWGQGTLVTVSSGGGGSGGGGSGGGGSGGGGSGGGGSGGGGSGGGGSEVQLVESGGGSVQPGGSLTLSCGTSGRTFNVMGWFRQAPGKEREFVAAVRWSSTGIYYTQYADSVKSRFTISRDNAKNTVYLEMNSLKPEDTAVYYCAADTYNSNPARWDGYDFRGQGTLVTVSS | – | – | – | – | – | binds |
| CD4#8-IL23R#20 (bispecific antibody, also called BI#44; T023200044) EVQLVESGGGSVQPGGSLTLSCGTSGRTFNVMGWFRQAPGKEREFVAAVRWSSTGIYYTQYADSVKSRFTISRDNAKNTVYLEMNSLKPEDTAVYYCAADTYNSNPARWDGYDFRGQGTLVTVSSGGGGSGGGGSGGGGSGGGGSGGGGSGGGGSGGGGSEVQLVESGGGLVQAGGSLRLSCAASGRTFSSYAMGWFRQAPGKDREFVAAISWIGESTYYADSVKGRFTISRDNAKNTVYLRMNSLKPEDTAVYYCAADLYYTAYVAAADEYDYWGQGTLVTVSS | – | – | – | – | – | binds |
| CD4#8-IL23R#19 (bispecific antibody, also called BI#45; T023200045) EVQLVESGGGSVQPGGSLTLSCGTSGRTFNVMGWFRQAPGKEREFVAAVRWSSTGIYYTQYADSVKSRFTISRDNAKNTVYLEMNSLKPEDTAVYYCAADTYNSNPARWDGYDFRGQGTLVTVSSGGGGSGGGGSGGGGSGGGGSGGGGSGGGGSGGGGSEVQLVESGGGLVQPGGSLTLSCVASGRTFSTDVMGWFRQAPGKEREFVAAHRTSGISTVYAASVKGRFTISRDNAKNTVYLGMKSLKPEDTAVYVCAAGSDASGGYDYWGQGTLVTVSS | – | – | – | – | – | binds |
| IL12Rb1#30-CD4#8 (bispecific antibody, also called BI#46; T023200046) EVQLVESGGGLVQTGGSLRLSCAASGRTPRLVAMGWFRQTPGKEREFVGEIILSKGFTYYADSVKGRFTISRVNAKNTITMYLQMNSLKSEDTAVYYCAGRQNWSGSPARTNEYEYWGQGTLVTVSSGGGGSGGGGSGGGGSGGGGSGGGGSGGGGSGGGGSEVQLVESGGGSVQPGGSLTLSCGTSGRTFNVMGWFRQAPGKEREFVAAVRWSSTGIYYTQYADSVKSRFTISRDNAKNTVYLEMNSLKPEDTAVYYCAADTYNSNPARWDGYDFRGQGTLVTVSS | – | – | – | – | – | binds |
| IL12Rb1#31-CD4#8 (bispecific antibody, also called BI#47; T023200047) EVQLVESGGGLVQTGGSLRLSCAASGRTPSIIAMGWFRQTPGKEREFVGEIILSKGFTYYADSVKGRFTISRANAKNTITMYLQMNSLKSEDTAVYYCAARQNWSGNPTRTNEYEYWGQGTLVTVSSGGGGSGGGGSGGGGSGGGGSGGGGSGGGGSGGGGSEVQLVESGGGSVQPGGSLTLSCGTSGRTFNVMGWFRQAPGKEREFVAAVRWSSTGIYYTQYADSVKSRFTISRDNAKNTVYLEMNSLKPEDTAVYYCAADTYNSNPARWDGYDFRGQGTLVTVSS | – | – | – | – | – | binds |
| 57A07-281F12 (A0110057A07-35GS-4CXCR281F12(Q108L)) (bispecific antibody, the entry carries a c-myc-His6 tag; also made as Flag3-His6-tagged protein; also called CD123#1-CXCR4#2; BI#10/21) EVQLVESGGGLVQAGGSLRLSCAASGSIFSGNVMGWYRRQAPGKEREWVAAIASGGSIYYRDSVKGRFTISRDNAKNTVYLQMNSLKPEDTAVYYCNSHPPTLPYWGQGTLVTVSSGGGGSGGGGSGGGGSGGGGSGGGGSGGGGSGGGGSEVQLVESGGGLVQAGDSLRLSCAASGRAFSRYAMGWFRQAPGKEREFVAAIGWGPSKTNYADSVKGRFTISRDNAKNTVYLQMNTLKPEDTAVYSCAAKFVNTDSTWSRSEMYTYWGQGTLVTVSSAAAEQKLISEEDLNGAAHHHHHH | binds | – | – | – | – | – |
| 55A01-281F12 (A0110055A01-35GS-4CXCR281F12(Q108L)) (bispecific antibody, the entry carries a c-myc-His6 tag; also made as Flag3-His6-tagged protein; also called CD123#2-CXCR4#2; BI#15/24) EVQLVESGGGSVQAGGSLRLSCTTSGRALNMYVMGWFRQAPGNEREFVAATSSSGGSTSYPDSVKGRFTISRDNAKNTVYLQMNSLKPEDTAAYRCAASPYVSTPTMNILEEYRYWGQGTLVTVSSGGGGSGGGGSGGGGSGGGGSGGGGSGGGGSGGGGSEVQLVESGGGLVQAGDSLRLSCAASGRAFSRYAMGWFRQAPGKEREFVAAIGWGPSKTNYADSVKGRFTISRDNAKNTVYLQMNTLKPEDTAVYSCAAKFVNTDSTWSRSEMYTYWGQGTLVTVSSAAAEQKLISEEDLNGAAHHHHHH | binds | – | – | – | – | – |

From US20220242958A1 (published 2022)
